Article PMC2408616, “Modular Organization and Combinatorial Energetics of Proline–Tyrosine Nuclear Localization Signals” (PLoS Biology, 2008)
Positions count from the first letter of the chain named. In names and notes the source's numbering stands. Where two headings read alike, the source gives them in different places.

Experiments:
Kap104p [1] = biological target: Kap104p (UniProt P38217); assay: ITC
Kap104p, P38217 [2] = biological target: T1, Kap104p, P38217; assay: ITC; design: other: TΔS: unit not given here; details: for Kd / other: TΔS / dG / other: ΔH: chain shown with the change;; for Kd: parent: 37 ± 20; for ddG / ratio to parent: chain shown with the change; for other: TΔS: parent: -1.3 ± 0.6; for dG: parent: -10.0 ± 0.3; for other: ΔH: parent: -11.3 ± 0.5
T1 chain: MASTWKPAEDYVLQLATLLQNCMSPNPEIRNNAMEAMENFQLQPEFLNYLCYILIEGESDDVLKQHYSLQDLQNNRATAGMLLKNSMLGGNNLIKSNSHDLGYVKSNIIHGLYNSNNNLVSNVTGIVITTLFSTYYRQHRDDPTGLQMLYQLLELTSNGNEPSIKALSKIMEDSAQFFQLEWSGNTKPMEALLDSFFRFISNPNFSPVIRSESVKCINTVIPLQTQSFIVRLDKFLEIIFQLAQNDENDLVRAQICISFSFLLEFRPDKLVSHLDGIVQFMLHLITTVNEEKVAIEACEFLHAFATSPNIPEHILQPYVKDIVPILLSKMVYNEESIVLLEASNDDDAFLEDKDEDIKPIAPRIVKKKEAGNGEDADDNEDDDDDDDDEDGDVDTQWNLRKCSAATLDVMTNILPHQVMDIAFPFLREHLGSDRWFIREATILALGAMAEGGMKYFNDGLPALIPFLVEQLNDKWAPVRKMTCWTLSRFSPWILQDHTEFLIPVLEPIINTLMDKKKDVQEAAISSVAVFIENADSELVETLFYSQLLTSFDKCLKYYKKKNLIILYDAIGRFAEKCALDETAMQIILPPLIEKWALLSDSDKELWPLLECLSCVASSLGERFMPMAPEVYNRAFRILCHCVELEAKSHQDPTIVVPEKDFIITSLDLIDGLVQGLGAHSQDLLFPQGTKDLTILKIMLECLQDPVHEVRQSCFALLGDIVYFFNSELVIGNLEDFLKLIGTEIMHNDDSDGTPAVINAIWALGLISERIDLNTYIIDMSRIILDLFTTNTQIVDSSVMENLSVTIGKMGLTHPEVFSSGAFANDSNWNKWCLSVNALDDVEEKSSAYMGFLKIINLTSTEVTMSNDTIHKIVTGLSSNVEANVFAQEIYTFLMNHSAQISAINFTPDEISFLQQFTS

Kap104p [3] = biological target: T2, Kap104p (yeast (S. cerevisiae), UniProt P38217 1-918); assay: ITC; 90–350 μM MBP-NLS titrated into 9–35 μM Kap104p in the cell; 20 °C; 20 mM Tris pH 7.5, 100 mM NaCl, 2 mM β-mercaptoethanol, 10% glycerol; 35 injections of 8 μl; single-site model; details: both partners purified
T2 construct: Kap104p, yeast homolog of Kapβ2; gene a gift from J. Aitchison, subcloned into pGEX-Tev; also called yeast Karyopherin β2 homolog; source: E. coli Rosetta(DE3)pLysS, purified (glutathione sepharose, TEV cleavage, anion exchange, gel filtration)
T2 sequence (looked up): T1 chain

Kap104p [4] = biological target: T2, Kap104p; assay: pull-down; ~30 μg Kap104p added to ~10 μg GST protein immobilized on 20 μl glutathione sepharose; washes with TB buffer (20 mM HEPES pH 7.3, 110 mM KAc, 2 mM MgAc, 1 mM EGTA, 2 mM DTT, 20% glycerol); second incubation with buffer or RanGTP (5-fold molar excess); SDS-PAGE, Coomassie; details: both partners purified
Kap104p [5] = biological target: T3, Kap104p (yeast (S. cerevisiae), UniProt P38217 1-918); assay: ITC
T3 chain: T1 chain

Kap104p, P38217 [6] = biological target: T1, Kap104p, P38217; assay: ITC; details: for Kd: parent: 32 ± 16
Kap104p [7] = biological target: T3, Kap104p; assay: ITC

MBP–Hrp1p NLS (from UniProt Q99383) R512A; 524RR525/AA
ddG (Kap104p [1]): 0.1 kcal/mol | ratio to parent (Kap104p [1]): 1.4 | other: TΔS (Kap104p [1]; parent: 0.09 ± 0.7): 0.06 kcal/mol | other: ΔH (Kap104p [1]; parent: -10.0 ± 0.5): -9.9 kcal/mol | dG (Kap104p [1]; parent: -10.1 ± 0.3): -9.9 kcal/mol

B1: MBP–Nab2p NLS 216KNRR219/AAAA (domain or fragment, S. cerevisiae, UniProt P32505 201-251, looked up)
chain: DNSQRFTQRGGGAVGAAAAGGRGGNRGGRNNNSTRFNPLAKALGMAGESNM
notes: Nab2p NLS, residues 201-251; source: E. coli BL21(DE3), purified (amylose resin, cation exchange)
Kd (Kap104p, P38217 [2]): 109 nM | fold decrease in affinity against wild type (Kap104p [3]): 3 fold

B2: MBP–Nab2p NLS 226RGGRN230 to alanines (domain or fragment, S. cerevisiae, UniProt P32505 201-251, looked up)
chain: DNSQRFTQRGGGAVGKNRRGGRGGNAAAAANNSTRFNPLAKALGMAGESNM
notes: as for B1
ddG (Kap104p, P38217 [2]): 0.3 kcal/mol | ratio to parent (Kap104p, P38217 [2]): 1.6 | Kd (Kap104p, P38217 [2]): 59 nM | other: TΔS (Kap104p, P38217 [2]): -0.2 | dG (Kap104p, P38217 [2]): -9.7 kcal/mol | other: ΔH (Kap104p, P38217 [2]): -9.9 kcal/mol | binding result (Kap104p [3]): binds

B3: MBP–Nab2p NLS 222RGG224 to alanines (domain or fragment, S. cerevisiae, UniProt P32505 201-251, looked up)
chain: DNSQRFTQRGGGAVGKNRRGGAAANRGGRNNNSTRFNPLAKALGMAGESNM
notes: as for B1
ddG (Kap104p, P38217 [2]): 0.3 kcal/mol | ratio to parent (Kap104p, P38217 [2]): 1.6 | Kd (Kap104p, P38217 [2]): 58 nM | other: TΔS (Kap104p, P38217 [2]): 0.06 | dG (Kap104p, P38217 [2]): -9.7 kcal/mol | other: ΔH (Kap104p, P38217 [2]): -9.6 kcal/mol | binding result (Kap104p [3]): binds

B4: GST–Nab2p, full-length (natural protein, S. cerevisiae, UniProt P32505 1-525, looked up)
chain: MSQEQYTENLKVIVAEKLAGIPNFNEDIKYVAEYIVLLIVNGGTVESVVDELASLFDSVSRDTLANVVQTAFFALEALQQGESAENIVSKIRMMNAQSLGQSDIAQQQQQQQQQQQPDIAQQQPQQQPQQQPQQQPQQQPQQQPQQQPQQQPQQQPQLQPLQPQLGTQNAMQTDAPATPSPISAFSGVVNAAAPPQFAPVDNSQRFTQRGGGAVGKNRRGGRGGNRGGRNNNSTRFNPLAKALGMAGESNMNFTPTKKEGRCRLFPHCPLGRSCPHAHPTKVCNEYPNCPKPPGTCEFLHPNEDEELMKEMERTREEFQKRKADLLAAKRKPVQTGIVLCKFGALCSNPSCPFGHPTPANEDAKVIDLMWCDKNLTCDNPECRKAHSSLSKIKEVKPISQKKAAPPPVEKSLEQCKFGTHCTNKRCKYRHARSHIMCREGANCTRIDCLFGHPINEDCRFGVNCKNIYCLFRHPPGRVLPEKKGAAPNSNVPTNERPFALPENAIIENAPPQTSFTHQEQDTEMN
notes: Nab2p, S. cerevisiae; also called full-length Nab2p; source: E. coli BL21(DE3), immobilized on glutathione sepharose
binding result (Kap104p [4]): binds

B5: MBP–Nab2p NLS 210GGG212/AAA (protein)
chain: B3 chain with G10A, G11A, G12A, A22R, A23G, A24G
ddG (Kap104p [1]): -0.4 kcal/mol | ratio to parent (Kap104p [1]): 0.5 | Kd (Kap104p [1]; parent: 37 ± 20): 19 nM | other: TΔS (Kap104p [1]; parent: -1.3 ± 0.6): 0.5 kcal/mol | dG (Kap104p [1]; parent: -10.0 ± 0.3): -10.4 kcal/mol | other: ΔH (Kap104p [1]; parent: -11.3 ± 0.5): -9.8 kcal/mol | Kd (Kap104p [5]): 19 nM

B6: MBP–Hrp1p NLS 519RGGYN523/AAAAA (domain or fragment, S. cerevisiae, UniProt Q99383 494-534, looked up)
chain: RDRNDRDRDYNHRSGGNHRRNGRGGAAAAARRNNGYHPYNR
notes: Hrp1p NLS, residues 494-534; source: E. coli BL21(DE3), purified (amylose resin, cation exchange)
ddG (Kap104p, P38217 [6]; chain shown with the change): -0.4 kcal/mol | ratio to parent (Kap104p, P38217 [6]; chain shown with the change): 0.5 | other: TΔS (Kap104p, P38217 [6]; chain shown with the change;, parent: 0.09 ± 0.7): -3.8 kcal/mol/K | Kd (Kap104p, P38217 [6]; chain shown with the change;): 17 nM | other: ΔH (Kap104p, P38217 [6]; chain shown with the change;, parent: -10.0 ± 0.5): -14.2 kcal/mol | dG (Kap104p, P38217 [6]; chain shown with the change;, parent: -10.1 ± 0.3): -10.4 kcal/mol | binding result (Kap104p [3]): binds

B7: GST–Hrp1p, full-length (natural protein, S. cerevisiae, UniProt Q99383 1-534, looked up)
chain: MSSDEEDFNDIYGDDKPTTTEEVKKEEEQNKAGSGTSQLDQLAALQALSSSLNKLNNPNSNNSSSNNSNQDTSSSKQDGTANDKEGSNEDTKNEKKQESATSANANANASSAGPSGLPWEQLQQTMSQFQQPSSQSPPQQQVTQTKEERSKADLSKESCKMFIGGLNWDTTEDNLREYFGKYGTVTDLKIMKDPATGRSRGFGFLSFEKPSSVDEVVKTQHILDGKVIDPKRAIPRDEQDKTGKIFVGGIGPDVRPKEFEEFFSQWGTIIDAQLMLDKDTGQSRGFGFVTYDSADAVDRVCQNKFIDFKDRKIEIKRAEPRHMQQKSSNNGGNNGGNNMNRRGGNFGNQGDFNQMYQNPMMGGYNPMMNPQAMTDYYQKMQEYYQQMQKQTGMDYTQMYQQQMQQMAMMMPGFAMPPNAMTLNQPQQDSNATQGSPAPSDSDNNKSNDVQTIGNTSNTDSGSPPLNLPNGPKGPSQYNDDHNSGYGYNRDRGDRDRNDRDRDYNHRSGGNHRRNGRGGRGGYNRRNNGYHPYNR
notes: Hrp1p, S. cerevisiae; also called full-length Hrp1p; source: E. coli BL21(DE3), immobilized on glutathione sepharose
binding result (Kap104p [4]): binds

B8: MBP–Hrp1p NLS 524RR525/AA (domain or fragment, S. cerevisiae, UniProt Q99383 494-534, looked up)
chain: RDRNDRDRDYNHRSGGNHRRNGRGGRGGYNAANNGYHPYNR
notes: as for B6
Kd (Kap104p, P38217 [6]; chain shown with the change;): 62 nM | KD,mutant/KD,wild type (Kap104p [3]): 1.7

B9: MBP–Hrp1p NLS R512A, Y529A (peptide)
chain: B8 chain with R19A, A31R, A32R, Y36A
Kd (Kap104p [7]): 60 nM

B10: MBP–Hrp1p NLS R512A, 524RR525/AA (peptide)
chain: B8 chain with R19A
Kd (Kap104p [7]): 44 nM

B11: MBP–Hrp1p NLS R524A (peptide)
chain: B8 chain with A32R
Kd (Kap104p [7]): 37 nM

B12: MBP–Hrp1p NLS R525A (peptide)
chain: B8 chain with A31R
Kd (Kap104p [7]): 13 nM

B13: MBP–Hrp1p NLS Y529L (domain or fragment, S. cerevisiae, UniProt Q99383 494-534, looked up)
chain: B8 chain with A31R, A32R, Y36L
notes: as for B6
Kd (Kap104p [7]): 37 nM | binding result (Kap104p [3]): binds

B14: MBP–Hrp1p NLS R512, R513, R516, R519/KKKK (domain or fragment, S. cerevisiae, UniProt Q99383 494-534, looked up)
chain: RDRNDRDRDYNHRSGGNHKKNGKGGKGGYNRRNNGYHPYNR
notes: Hrp1p NLS, residues 494-534; also called quadruple mutant (arginines to lysines); source: E. coli BL21(DE3), purified (amylose resin, cation exchange)
Kd (Kap104p [7]): 36 nM | binding result (Kap104p [3]): binds

B15: MBP–Hrp1p NLS R512,R513,R516,R519/AAAA (domain or fragment, S. cerevisiae, UniProt Q99383 494-534, looked up)
chain: B14 chain with K19A, K20A, K23A, K26A
notes: Hrp1p NLS, residues 494-534; also called quadruple mutant (arginines to alanines); source: E. coli BL21(DE3), purified (amylose resin, cation exchange)
Kd (Kap104p [7]): 194 nM | fold decrease in binding against wild type (Kap104p [3]): 5 fold

B16: MBP–Hrp1p NLS Y529A (domain or fragment, S. cerevisiae, UniProt Q99383 494-534, looked up)
chain: B8 chain with A31R, A32R, Y36A
notes: as for B6
Kd (Kap104p [7]): 143 nM | KD,mutant/KD,wild type (Kap104p [3]): 4

B17: GST–Tfg2p, full-length (natural protein, S. cerevisiae, UniProt P41896 1-400, looked up)
chain: MSSGSAGAPALSNNSTNSVAKEKSGNISGDEYLSQEEEVFDGNDIENNETKVYEESLDLDLERSNRQVWLVRLPMFLAEKWRDRNNLHGQELGKIRINKDGSKITLLLNENDNDSIPHEYDLELTKKVVENEYVFTEQNLKKYQQRKKELEADPEKQRQAYLKKQEREEELKKKQQQQKRRNNRKKFNHRVMTDRDGRDRYIPYVKTIPKKTAIVGTVCHECQVMPSMNDPNYHKIVEQRRNIVKLNNKERITTLDETVGVTMSHTGMSMRSDNSNFLKVGREKAKSNIKSIRMPKKEILDYLFKLFDEYDYWSLKGLKERTRQPEAHLKECLDKVATLVKKGPYAFKYTLRPEYKKLKEEERKATLGELADEQTGSAGDNAQGDAEADLEDEIEMEDVV
notes: Tfg2p, S. cerevisiae; source: E. coli BL21(DE3), immobilized on glutathione sepharose
binding result (Kap104p [4]): binds
